Assay results: patent US20040072750A1, “Compounds and methods for the modulation of CD154” (priority 2001, published 2004)
“Also recorded” adds a separate entry of the source.

Key:
platelets [1] = assay: Release of sCD154 from stimulated platelets in platelet-rich plasma (ELISA); format: cell-based, human; conditions: for Inhibition of sCD154 Release at >90% Platelet Aggregation Inhibition, % / Potentiation of sCD154 Release, %: TRAP-stimulated platelets, average and SD; for Inhibition of sCD154 Release at >90% Platelet Aggregation Inhibition, %: release without GP IIb-IIIa inhibitor set at 100%; for Potentiation of sCD154 Release, %: maximal potentiation, release without inhibitor set at 100%
Protocol: Platelet-rich plasma (PRP) was prepared from human donors by obtaining blood through a 19-gauge butterfly into PPACK anticoagulant (8.6 ml of 2.1 mM PPACK, Calbiochem, La Jolla, Calif.: final concentration 0.3 mM). Blood was aliquoted into 15 ml polypropylene tubes and centrifuged at 900 rpm for 20 minutes (160×g). The platelet rich plasma (PRP) was carefully removed and pooled in a new tube. Platelet counts were taken and recorded. Aliquots of PRP at 37° C. were then added to 1.5 ml microcentrifuge tubes containing various amounts of eptifibatide. To initiate aggregation, 20 μM ADP 4 μg/mL collagen or 5 μM TRAP6 was added and samples were rocked on a Nutator for 30 minutes at 37° C. The tubes were put on ice and immediately centrifuged at 15,000×g for 10 minutes at 4° C.
The platelet-poor plasma (PPP) supernatant was removed to new tubes and the levels of sCD154 in these samples were measured by ELISA. There was a time-dependent increase in sCD154 release when platelets were aggregated with either ADP or TRAP6.
(§1) In other experiments, various concentrations of eptifibatide, abciximab or tirofiban were added to PRP before the addition of TRAP. In the eptifibatide experiments, the release of βTG from platelet a granules was determined from PPP samples by ELISA. Inhibition of aggregation by GP IIb-IIIa antagonists was determined in PPACK-anticoagulated PRP by light-transmission aggregometry (Chrono-Log) as described in Phillips et al. (1995) J Exp. Med 182:33-40. To assess the effect of aspirin use on the release of sCD154 from platelets, PRP was obtained from 7 donors, incubated with a single concentration of GP IIb-IIIa inhibitor, and stimulated with 20 μmol/L ADP, 5 μmol/L TRAP or 4 μg/mL collagen for 30 minutes while rocking at 37° C. Resultant PPP was measured for sCD154. The same donors then took 325 mg of aspirin for 7 days. PRP was again collected and subjected to the same conditions, and the release of sCD154 was determined. A control reading (no addition of inhibitor) was taken with the agonist 0.5 mmol/L arachidonic acid in citrated PRP to ensure that the aspirin had been taken.

platelets [2] = assay: Platelet aggregation in PRP by light-transmission aggregometry; format: cell-based, human; conditions: before and after 7 days of aspirin
Protocol: as §1

platelets [3] = assay: Platelet function (Accumetrics RPFA) in patients undergoing PCI; format: in vivo, human; conditions: 10 minutes post final bolus
Protocol: (§2) Patients (n=45) undergoing PCI were enrolled. The study was approved by the IRB and all patients signed informed consent. Exclusion criteria included higher risk clinical scenarios mandating, according to institutional clinical practice, the use of GP IIb/IIIa antagonists (i.e., acute ST elevation MI or non q-wave MI with CPK elevation, pain at rest with EKG changes <24 hours, visible thrombus, pain refractory to heparin), pre-procedural GP IIb/IIIa inhibitor treatment, restenotic and graft lesions, and standard conditions excluding GP IIb/IIIa inhibitor use.
(§3) All patients received aspirin and intravenous heparin (50-70U/kg) monitored by activated clotting time (ACT) during the procedure. Patients were administered either no GP IIb/IIIa inhibitor, eptifibatide (180 μg/kg double bolus followed by 2 μg/kg/min for 16 h), or abciximab (0.25 mg/kg bolus intravenously followed by 0.125 μg/kg/min for 12 h) at the discretion of the primary operator. Platelet function was monitored using PPACK-anticoagulated blood and the Accumetrics RPFA device at baseline and 10 min post-final bolus. Interventionalists were blinded to RPFA results and not permitted to modify GP IIb-IIIa inhibitor dosing. Post-PCI, patients received clopidogrel (300 mg PO) followed by 75 mg daily.

[4] = Plasma inflammatory markers after PCI (ELISA); format: in vivo, human
Protocol: as §2, §3
Venous blood samples were collected prior to (t=0) and at 30 minutes, 2 hours, and 24 hours after the angioplasty wire was advanced across the lesion. Blood was collected into 10 mL tubes with either EDTA (for sCD 154 analysis) or PPACK (for all other analyses) anticoagulant, centrifuged at 4° C., and stored at −80° C. until analysis.
Inflammatory markers in plasma samples were quantified by commercially available ELISA for sCD154 (Alexis BioChemical) with modification (12), RANTES, IL6, sICAM-1 (BioSource), and CRP (Alpha Diagnostic International).
Primary endpoint data are presented as mean±SE. Data were log transformed to achieve a normal distribution verified by Kolmogorov-Smirnov test for normality. Statistical comparisons were performed using two-way ANOVA to determine a difference in mean values over time between the 3 groups. Pair-wise comparisons were performed when the ANOVA false-positive rate was ≦5%. A Bonferroni corrective for 3 pair-wise comparisons was applied, in which the p-value of […] was used to signify a false-positive rate of 5%. For ANOVA with a false-positive rate of ≧5%, the pair-wise comparisons were reported to be statistically nonsignificant (NS). Baseline and procedural characteristics data were analyzed with standard one way ANOVA for continuous data in more than 3 groups and a student's t-test for comparison of 2 groups. A Mann-Whitney Rank Sum test was used for nominal data. Statistical significance was assumed if the false positive rate was ≦5%.

washed platelets = assay: Fibrinogen binding to washed platelets and microparticle generation (flow cytometry); format: cell-based, human; conditions: 2 μM protein, 60 minutes at 37° C.; FIG. 10
Protocol: Venous blood was collected from normal donors into ACD buffer (85 mM Sodium Citrate, […] and 71 mM Citric acid) containing 0.05 μg/ml prostaglandin 12(PGI2). Blood was later centrifuged at 160×g for 20 minutes to collect platelet rich plasma (PRP). PRP was centrifuged at 1100×g for 10 minutes to sediment platelets. Platelets were washed twice with CGS buffer (13 mM trisodium citrate, 120 mM sodium chloride and 30 mM dextrose pH 7.0). The first wash had 0.03 μg/ml PGI2. Washed platelets were finally suspended in Tyrodes-Hepes buffer (12 mM sodium bi-carbonate, 138 mM sodium chloride, 5.5 mM glucose, 2.9 mM potassium chloride, 10 mM Hepes, 1 mM calcium chloride and 1 mM magnesium chloride, pH 7.4).
Washed platelets (1×10^7/ml) were incubated for 60 minutes at 37° C. with 2 μM soluble CD154 (sCD154) or mutant sCD154 (D117E mutation in the KGD sequence) in the presence or absence of eptifibatide or anti-CD40 antibody. All incubations had 100 nM Alexa-Fibrinogen (Molecular probes, Eugene, Oreg.). Samples were diluted 10 fold with stain buffer (BD Pharmingen, Los Angeles, Calif.) after incubation and analyzed by flow cytometry (FACSort, BD, San Jose, Calif.).

platelets in whole blood = assay: Perfusion chamber: thrombus formation of whole blood on protein-coated surface under shear; format: cell-based, human; conditions: with or without Fg
Protocol: The effect of CD154 on the aggregation of platelets under conditions of high shear stress were evaluated. Recombinant CD154 (rCD154 or rCD40L) was compared to fibrinogen (Fg) in its ability to form thrombi as well as in combination with Fg. Controls also included CD154 in which the KGD eptifibatide-recognition sequence was mutated to KGE (CD154(KGE) or CD40L(KGE)). Briefly, a silicone gasket with a flow path height of 127 μm was placed between a flat perfusion chamber (Glycotech, Rockville, Md.) and a protein-coated petri dish as described (Andre, P. et al., Nature Medicine, 8:247-252 (2002)). Petri dishes were coated with rCD40L, Fibrinogen (Fg), rCD40L+Fg, mutated CD40L (CD40L(KGE)), CD40L(KGE)+Fg. In one experiment, the glycoprotein IIb/IIIa antagonist eptifibatide (2 μM) was incubated with whole blood before perfusion over the rCD40L-coated surface. When Fg was coated with either rCD40L or CD40L(KGE), each molecule was deposited at 25 μg/cm^2. Coating of the proteins was performed using the spray method in which 25 μl of a 1 mg/ml protein solution is coated onto the plastic with a retouching air brush resulting in a concentration of 25 μg/cm^2 (Houdijk, WP et al., J. Clin. Invest., 75:531-540 (1985)). Human peripheral blood was collected on PPACK (40 μmol/L final concentration) and perfused for 4 minutes over the protein-coated surface. Shear rates of 1500-1600/s, 500-600/s and 100-200/s, were generated with flow rates of ˜0.6, 0.25 and 0.075 ml/min, respectively. Measurements of thrombotic deposits were performed using the Simple PCI software image analysis program (Technical Instrument, Burlingame, Calif.).

Molecule: CC(=O)Oc1ccccc1C(=O)O [aspirin]
- release of sCD154 from platelets stimulated with ADP or TRAP (platelets [1]; after aspirin use): unaffected; also recorded: does not block
- release of CD154 from platelets activated by collagen (platelets [1]; aspirin, in words): blocks
- decrease in the release of sCD154 from collagen-induced platelet aggregates (platelets [1]; donors took 325 mg aspirin for 7 days, collagen 4 μg/mL): 50%
- platelet aggregation in response to optimal doses of platelet agonists (platelets [2]): no effect

Molecule: CCCCS(=O)(=O)N[C@@H](Cc1ccc(OCCCCC2CCNCC2)cc1)C(=O)O [tirofiban]
- Inhibition of sCD154 Release at >90% Platelet Aggregation Inhibition, % (platelets [1]): 80 ± 5.3%
- Potentiation of sCD154 Release, % (platelets [1]): 19 ± 7.7%

B1: abciximab (antibody, chains of the INN, looked up, V domains shown)
VH: EVQLQQSGTVLARPGASVKMSCEASGYTFTNYWMHWVKQRPGQGLEWIGAIYPGNSDTSYIQKFKGKAKLTAVTSTTSVYMELSSLTNEDSAVYYCTLYDGYYVFAYWGQGTLVTVSA
VL: EIVLTQSPVTLSVTPGDSVSLSCRASRDISNNLHWFQQTSHESPRLLIKYASQSMSGIPSRFSGSGSGTDFTLSINSVETEDFGMYFCQQTNSWPYTFGGGTKLEIK
modifications: Fab
notes: parenteral GP IIb-IIIa antagonist
- Platelet inhibition (% inhibition) (platelets [3]): 93±4%
- Inhibition of sCD154 Release at >90% Platelet Aggregation Inhibition, % (platelets [1]): 57 ± 8.2%
- Potentiation of sCD154 Release, % (platelets [1]): 19 ± 7.5%
- CRP levels after PCI ([4]; 2-24 hours after PCI, not statistically significant): lowest levels
- plasma RANTES levels after PCI ([4]; versus baseline): not observed

B2: CD40L(KGE): CD154 in which the KGD eptifibatide-recognition sequence was mutated to KGE (D117E) (protein, UniProt P29965 113-261, looked up, variant D117E)
CD40 ligand, soluble form: MQKGEQNPQIAAHVISEASSKTTSVLQWAEKGYYTMSNNLVTLENGKQLTVKRQGLYYIYAQVTFCSNREASSQAPFIASLCLKSPGRFERILLRAANTHSSAKPCGQQSIHLGGVFELQPGASVFVNVTDPSQVSHGTGFTSFGLLKL
- fibrinogen binding to platelets and generation of microparticles (washed platelets): did not stimulate
- aggregate formation on coated surface (platelets in whole blood): does not induce
